Data taken from patent publication US20230372536A1, “NANOMATERIAL AND METHODS OF USE THEREOF” (UNIVERSITY OF CONNECTICUT, priority 2020, published 2023).

Experiments:
[1] = system: hMSCs; assay: Cell proliferation (CCK-8); format: cell-based, human; conditions: for cell proliferation: 3 or 5 days of culture
Experimental: Cell proliferation. Five groups of samples were added to an untreated 96-well plate for the cell proliferation experiment. For the JBNT group, 3.75 μL of 1 mg mL^−1 JBNTs was added to 596.25 μL distilled water to obtain a 600 μL JBNT solution. The concentration of the solution was 6.25 μg mL^−1. For the TGF-β1 group, 7.5 μL of 10 μg mL^−1 TGF-β1 was dispersed in 592.5 μL distilled water to obtain a 0.125 μg mL^−1 test solution. For the matrilin-3 group, 30 μL of 10 μg mL^−1 matrilin-3 was dispersed in 570 μL distilled water to obtain a 0.5 μg mL^−1 test solution. For the J/T/M NM group, 7.5 μL of 10 μg mL^−1 TGF-β1 was mixed with 30 μL of 10 μg mL^−1 matrilin-3 and pipetted several times. Then, 3.75 μL of 1 mg mL^−1 JBNTs was added to the solution and pipetted. The J/T/M NM solution was diluted with 558.75 μL distilled water. The final concentrations of JBNT, TGF-β1, and matrilin-3 samples were 6.25 μg mL^−1, 0.125 μg mL^−1, and 0.5 μg mL^−1, respectively. As a control group, 600 μL distilled water was used. Each sample group was divided into 6 wells, with each well receiving a 100 μL sample. The three plates were placed into a −80° C. freezer for one hour and then freeze-dried with a lyophilized instrument.
hMSCs were seeded onto these plates. Each well received 100 μL cell suspension containing 5,000 cells. Three plates were incubated at 37° C. for 1 day, 3 days, or 5 days (5% CO2). After incubation, 10 μL CCK-8 solution was added to each well with cells. Then, each plate was incubated at 37° C. for another 2 h. The absorption values of the plates were measured with multi-mode microplate readers at 450 nm. A series of a known number of hMSCs were seeded onto a 96-well plate. After incubating for 4 h, the absorption values of the cells were measured with the CCK-8 assay. A standard curve was generated according to the absorption values and the numbers of hMSCs. Cell proliferation was calculated with the absorption standard curve.

[2] = free TGF-β1; cited from earlier work
[3] = Zeta-potential test; format: physicochemical; conditions: dispersed in H2O
Experimental: Zeta-potential test. Three groups of samples were prepared. For the matrilin-3 group, 160 μL of 10 μg mL^−1 matrilin-3 was dispersed in 640 μL H2O to obtain an 800 μL test solution. For the mixed matrilin-3/TGF-β1 group, 160 μL of 10 μg mL^−1 matrilin-3 was mixed with 40 μL of 10 μg mL^−1 TGF-β1 and pipetted several times. The mixture was then dispersed in 600 μL H2O to obtain an 800 μL test solution. For the J/T/M NM group, 160 μL of 10 μg mL^−1 matrilin-3 was mixed with 40 μL of 10 μg mL^−1 TGF-β1 and pipetted several times. Then, 20 μL of 1 mg mL^−1 JBNTs was added to the solution and pipetted several times. Finally, the J/T/M NM solution was dispersed in 580 μL H2O to obtain an 800 μL test solution. The zeta-potential values of the three groups of samples were tested with a Zetasizer Nano ZS.

TGF-β1: Recombinant human TGF-β1 (CHO derived, PeproTech), chondrogenic growth factor
cell proliferation [1]: more obvious effects related to the promotion of cell proliferation | cell number (proliferation) ([1]; one day of culture): significantly higher cell numbers | plasma half-life [2]: < 1.67 h

B1: matrilin-3: Recombinant human matrilin-3 protein (R&D Systems), cartilage-specific ECM protein (protein, UniProt O15232 29-486, looked up)
Matrilin-3: DPVARPGFRRLETRGPGGSPGRRPSPAAPDGAPASGTSEPGRARGAGVCKSRPLDLVFIIDSSRSVRPLEFTKVKTFVSRIIDTLDIGPADTRVAVVNYASTVKIEFQLQAYTDKQSLKQAVGRITPLSTGTMSGLAIQTAMDEAFTVEAGAREPSSNIPKVAIIVTDGRPQDQVNEVAARAQASGIELYAVGVDRADMASLKMMASEPLEEHVFYVETYGVIEKLSSRFQETFCALDPCVLGTHQCQHVCISDGEGKHHCECSQGYTLNADKKTCSALDRCALNTHGCEHICVNDRSGSYHCECYEGYTLNEDRKTCSAQDKCALGTHGCQHICVNDRTGSHHCECYEGYTLNADKKTCSVRDKCALGSHGCQHICVSDGAASYHCDCYPGYTLNEDKKTCSATEEARRLVSTEDACGCEATLAFQDKVSSYLQRLNTKLDDILEKLKINEYGQIHR
cell proliferation [1]: moderately increase cell proliferation | zeta-potential [3]: approximately −15 mV
